Broadly, the koff is the rate constant with which the complex falls apart. Read a high koff as fast dissociation. By Kd is commonly meant the equilibrium constant for the complex coming apart. A low value points to tighter binding.

Assay in all cases: SPR
In general terms: SPR reads the build-up and loss of mass on a sensor chip optically.

One experiment concerns the target MUC1 TRD-Tn (3) (UniProt P15941, Tn antigen (GalNAcα) on the Thr of the Asp-Thr-Arg-Pro moiety).
In experiment [1] the target is non-glycosylated MUC1 TRD (2) (UniProt P15941).
Sequence of non-glycosylated MUC1 TRD (2) (P15941 whole entry, looked up): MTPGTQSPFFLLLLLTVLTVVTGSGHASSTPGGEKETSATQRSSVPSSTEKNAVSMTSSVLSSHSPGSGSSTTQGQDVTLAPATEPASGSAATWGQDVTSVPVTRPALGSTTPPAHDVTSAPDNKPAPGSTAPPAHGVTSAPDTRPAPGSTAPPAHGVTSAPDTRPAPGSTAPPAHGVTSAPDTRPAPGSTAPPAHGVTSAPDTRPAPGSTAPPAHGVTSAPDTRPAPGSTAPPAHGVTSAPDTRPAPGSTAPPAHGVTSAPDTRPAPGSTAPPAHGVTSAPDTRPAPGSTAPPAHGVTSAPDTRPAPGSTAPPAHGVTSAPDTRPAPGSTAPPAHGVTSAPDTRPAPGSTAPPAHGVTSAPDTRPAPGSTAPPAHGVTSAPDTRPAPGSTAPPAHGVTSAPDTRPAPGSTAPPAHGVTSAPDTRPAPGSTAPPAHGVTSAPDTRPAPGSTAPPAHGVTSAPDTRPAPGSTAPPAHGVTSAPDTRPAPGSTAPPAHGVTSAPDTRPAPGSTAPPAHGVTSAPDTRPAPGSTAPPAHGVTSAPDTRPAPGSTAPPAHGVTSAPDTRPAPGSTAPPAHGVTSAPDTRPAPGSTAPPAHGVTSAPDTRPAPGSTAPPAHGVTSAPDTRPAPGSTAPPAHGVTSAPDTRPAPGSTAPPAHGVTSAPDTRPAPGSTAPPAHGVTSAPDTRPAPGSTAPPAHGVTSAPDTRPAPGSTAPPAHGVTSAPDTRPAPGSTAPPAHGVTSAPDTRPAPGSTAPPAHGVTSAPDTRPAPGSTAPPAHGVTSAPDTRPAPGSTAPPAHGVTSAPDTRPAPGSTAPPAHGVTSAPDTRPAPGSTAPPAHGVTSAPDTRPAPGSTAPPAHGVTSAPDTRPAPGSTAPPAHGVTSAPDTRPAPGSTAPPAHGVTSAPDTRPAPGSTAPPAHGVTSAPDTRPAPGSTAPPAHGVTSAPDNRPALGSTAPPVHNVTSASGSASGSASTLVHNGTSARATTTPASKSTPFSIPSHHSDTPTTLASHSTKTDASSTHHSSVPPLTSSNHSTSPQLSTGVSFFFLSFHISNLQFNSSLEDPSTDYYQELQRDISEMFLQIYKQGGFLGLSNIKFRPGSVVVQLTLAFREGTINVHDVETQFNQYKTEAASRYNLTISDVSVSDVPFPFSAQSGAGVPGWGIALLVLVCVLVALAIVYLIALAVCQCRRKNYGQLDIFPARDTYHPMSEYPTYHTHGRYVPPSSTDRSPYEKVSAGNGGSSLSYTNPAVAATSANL
Another experiment has as its target MUC1-ST (4) (UniProt P15941, ST antigen (Neu5Acα2,3Galβ1,3GalNAcα) on the Thr of the Asp-Thr-Arg-Pro moiety).

Sequence of MUC1 TRD-Tn (3) (P15941 whole entry, looked up): as above
Sequence of MUC1-ST (4) (P15941 whole entry, looked up): as above

B1: SN-131 Fab (Fab, V domains shown)
VH: QVQLQQSGAELARPGASVKLSCKASGYTFTNYGLSWVKQRTGQGLEWIGENHPGSGIIYHNEKFRGKATLTADKSSSTAYVQLSSLTSEDSAVYFCARSSGTRGFAYWGQGTLVTVSA
VL: DVLMTQTPLSLPVSLGDQASISCRSSQSIVHSNGNTYLEWYLQKPGQSPKLLIYKVSNRFSGVPDRFSGSGSGTDFTLKISRVEAEDLGVYYCFQGSHGPWTFGGGTKLEIK
Turning to B1, the koff was determined as 0.00144 s⁻¹ with MUC1 TRD-Tn (3), 0.00225 s⁻¹ in experiment [1] and 0.000456 s⁻¹ with MUC1-ST (4). In addition, the Kd in experiment [1] amounted to 10.8 µM.

These data come from article PMC10398351 (2023).
